Experimental data from patent publication US8334254.

Columns and labels:
[1] = biological target: enterocytic lactoferrin receptor on HT-29-18C1 enterocytic cells (human); assay: 125I-labelled ligand binding to HT-29-18C1 cells on ice, Scatchard analysis
[2] = biological target: enterocytic lactoferrin receptor on HT-29-18C1 enterocytic cells (human); assay: 125I-labelled ligand on HT29 cells with 100 molar excess of non-labelled native Lf
[3] = biological target: lymphocytic lactoferrin receptor on Jurkat T lymphoblastic cells; assay: 125I-labelled ligand on Jurkat cells with 100 molar excess of non-labelled native Lf
[4] = biological target: lymphocytic lactoferrin receptor on Jurkat T lymphoblastic cells; assay: 125I-labelled ligand binding to Jurkat cells at 4° C., Scatchard analysis

Kd [1] [nM] | sites per cell (sites per cell) [1] | non-specific binding as share of total binding [2] [%] | non-specific binding as share of total binding [3] [%] | Kd [4] [nM] | Substance
1000 | 4e+06 | 25 | 25 | 89.7 | human lactoferrin isolated from human milk (from UniProt P02788 20-710) (ligand)
800 | 1.8e+06 | 25 | 25 | 80.3 | recombinant human lactoferrin rhLf2 from pBIOC21-PSSp-Lf, purified from tobacco leaves (transformant T30) (from UniProt P02788 20-710) (ligand)
